According to article PMC10903754, “o-Vanillin binds covalently to MAL/TIRAP Lys-210 but independently inhibits TLR2” (Journal of Enzyme Inhibition and Medicinal Chemistry, 2024):

Biological target: the molecule itself
Test: turbidity assay; MAL^TIR ~87.5-103 uM in 10 mM HEPES pH 7.5, 150 mM NaCl, 30 °C; filament formation followed by absorbance at 500 nm over time; with or without o-vanillin and analogues

B1: TIR domain of human MAL/TIRAP (MAL^TIR), residues 79-221 (domain or fragment, UniProt P58753 79-221, looked up)
chain: SSRWSKDYDVCVCHSEEDLVAAQDLVSYLEGSTASLRCFLQLRDATPGGAIVSELCQALSSSHCRVLLITPGFLQDPWCKYQMLQALTEAPGAEGCTIPLLSGLSRAAYPPELRFMYYVDGRGPDGGFRQVKEAVMRYLQTLS
notes: MAL (MyD88 adaptor-like protein; TIRAP), human, TIR domain, residues 79-221; construct in the vector pMCSG7; For the NMR work the same construct was 13C-15N labelled and kept in low-salt buffer (10 mM HEPES pH 7.5, 10 mM NaCl); also called WT MAL^TIR; MyD88 adaptor-like protein TIR domain; source: E. coli BL21 (DE3), purified (Ni IMAC, TEV cleavage, SEC Superdex 75)
  binding result: binds
